Test results taken from the supplement of paper PMC9112550, “Optimization of the antimicrobial peptide Bac7 by deep mutational scanning” (BMC Biology, 2022).

tested on: Escherichia coli TOP10; assay: shrunken log2 fold change of peptide-encoding DNA abundance (4.5 h post-induction vs induction); higher = less antimicrobial activity (less host growth inhibition); details: time post-induction: 4.5 h; library: site-saturation at positions 5, 18, 19, 20
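Also: peptides expressed intracellularly from a pBAD plasmid library in pooled LB shake-flask culture, induced with 0.3% L-arabinose, DNA abundance read by NGS, three biological replicates, DESeq2 with apeglm shrinkage.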

Row | Sequence | shrunken log2 fold change
1 | RRIRARPPRLPRPRPRPFQQPRP | 0.00604
2 | RRIRARPPRLPRPRPRPFRCPRP | -0.0823
3 | RRIRARPPRLPRPRPRPFRHPRP | -0.0722
4 | RRIRARPPRLPRPRPRPFRIPRP | -0.169
5 | RRIRARPPRLPRPRPRPFRLPRP | 0.114
6 | RRIRARPPRLPRPRPRPFRMPRP | -0.184
7 | RRIRARPPRLPRPRPRPFSNPRP | -0.342
8 | RRIRARPPRLPRPRPRPFSPPRP | -0.342
9 | RRIRARPPRLPRPRPRPFTQPRP | -0.0692
10 | RRIRARPPRLPRPRPRPFTVPRP | -0.253
11 | RRIRARPPRLPRPRPRPFWDPRP | 0.00119
12 | RRIRARPPRLPRPRPRPFWLPRP | 0.0704
13 | RRIRARPPRLPRPRPRPFYRPRP | -0.178
14 | RRIRARPPRLPRPRPRPGASPRP | 0.978
15 | RRIRARPPRLPRPRPRPGCDPRP | 0.78
16 | RRIRARPPRLPRPRPRPGCHPRP | 0.265
17 | RRIRARPPRLPRPRPRPGDCPRP | 0.366
18 | RRIRARPPRLPRPRPRPGDIPRP | -0.0868
19 | RRIRARPPRLPRPRPRPGFIPRP | -0.339
20 | RRIRARPPRLPRPRPRPGFNPRP | 0.252
21 | RRIRARPPRLPRPRPRPGFYPRP | 0.0241
22 | RRIRARPPRLPRPRPRPGHEPRP | 0.054

Row | Sequence | shrunken log2 fold change
23 | RRIRARPPRLPRPRPRPGIFPRP | 0.468
24 | RRIRARPPRLPRPRPRPGIPPRP | 0.162
25 | RRIRARPPRLPRPRPRPGISPRP | 0.337
26 | RRIRARPPRLPRPRPRPGKEPRP | 0.222
27 | RRIRARPPRLPRPRPRPGLRPRP | 0.331
28 | RRIRARPPRLPRPRPRPGMFPRP | 0.295
29 | RRIRARPPRLPRPRPRPGNYPRP | 0.208
30 | RRIRARPPRLPRPRPRPGQGPRP | 0.204
31 | RRIRARPPRLPRPRPRPGQMPRP | 0.0151
32 | RRIRARPPRLPRPRPRPGQRPRP | 0.107
33 | RRIRARPPRLPRPRPRPGSLPRP | 0.056
34 | RRIRARPPRLPRPRPRPGSNPRP | 0.127
35 | RRIRARPPRLPRPRPRPGSYPRP | 0.14
36 | RRIRARPPRLPRPRPRPGTCPRP | 0.153
37 | RRIRARPPRLPRPRPRPGTFPRP | -0.125
38 | RRIRARPPRLPRPRPRPGVPPRP | 0.727
39 | RRIRARPPRLPRPRPRPGVYPRP | 0.011
40 | RRIRARPPRLPRPRPRPGWAPRP | 0.72
41 | RRIRARPPRLPRPRPRPGWCPRP | 0.465
42 | RRIRARPPRLPRPRPRPGWKPRP | 0.167
43 | RRIRARPPRLPRPRPRPGWRPRP | 0.473
44 | RRIRARPPRLPRPRPRPGYIPRP | -0.383

Row | Sequence | shrunken log2 fold change
45 | RRIRARPPRLPRPRPRPGYRPRP | -0.107
46 | RRIRARPPRLPRPRPRPHANPRP | -0.0153
47 | RRIRARPPRLPRPRPRPHAVPRP | 0.123
48 | RRIRARPPRLPRPRPRPHDQPRP | 0.808
49 | RRIRARPPRLPRPRPRPHDTPRP | 0.111
50 | RRIRARPPRLPRPRPRPHEAPRP | -0.0395
51 | RRIRARPPRLPRPRPRPHEKPRP | 0.358
52 | RRIRARPPRLPRPRPRPHFCPRP | -0.105
53 | RRIRARPPRLPRPRPRPHFDPRP | 0.22
54 | RRIRARPPRLPRPRPRPHFHPRP | -0.197
55 | RRIRARPPRLPRPRPRPHFPPRP | 0.0382
56 | RRIRARPPRLPRPRPRPHGMPRP | 0.238
57 | RRIRARPPRLPRPRPRPHGQPRP | 0.0639
58 | RRIRARPPRLPRPRPRPHIAPRP | -0.111
59 | RRIRARPPRLPRPRPRPHKVPRP | 0.31
60 | RRIRARPPRLPRPRPRPHKWPRP | 0.192
61 | RRIRARPPRLPRPRPRPHLGPRP | 0.0806
62 | RRIRARPPRLPRPRPRPHLIPRP | -0.0757
63 | RRIRARPPRLPRPRPRPHLMPRP | 0.0747
64 | RRIRARPPRLPRPRPRPHMQPRP | 2.87
65 | RRIRARPPRLPRPRPRPHMRPRP | 0.669
66 | RRIRARPPRLPRPRPRPHNPPRP | 0.0946

Row | Sequence | shrunken log2 fold change
67 | RRIRARPPRLPRPRPRPHPNPRP | 0.21
68 | RRIRARPPRLPRPRPRPHRPPRP | -0.0433
69 | RRIRARPPRLPRPRPRPHSEPRP | -0.0859
70 | RRIRARPPRLPRPRPRPHSVPRP | 0.0268
71 | RRIRARPPRLPRPRPRPHVEPRP | 0.147
72 | RRIRARPPRLPRPRPRPHWEPRP | -0.00635
73 | RRIRARPPRLPRPRPRPHWLPRP | 0.339
74 | RRIRARPPRLPRPRPRPHYCPRP | -0.17
75 | RRIRARPPRLPRPRPRPHYKPRP | -0.424
76 | RRIRARPPRLPRPRPRPIAFPRP | 0.222
77 | RRIRARPPRLPRPRPRPICGPRP | 0.248
78 | RRIRARPPRLPRPRPRPIECPRP | 0.157
79 | RRIRARPPRLPRPRPRPIEGPRP | 0.504
80 | RRIRARPPRLPRPRPRPIEMPRP | 0.563
81 | RRIRARPPRLPRPRPRPIEVPRP | 0.0287
82 | RRIRARPPRLPRPRPRPIFKPRP | -0.0373
83 | RRIRARPPRLPRPRPRPIFRPRP | 0.205
84 | RRIRARPPRLPRPRPRPIFTPRP | 0.165
85 | RRIRARPPRLPRPRPRPIGLPRP | 0.076
86 | RRIRARPPRLPRPRPRPIHNPRP | -0.0611
87 | RRIRARPPRLPRPRPRPIIWPRP | -0.419
88 | RRIRARPPRLPRPRPRPIKKPRP | -0.00732

Row | Sequence | shrunken log2 fold change
89 | RRIRARPPRLPRPRPRPILGPRP | 0.0597
90 | RRIRARPPRLPRPRPRPILIPRP | -0.374
91 | RRIRARPPRLPRPRPRPILVPRP | -0.122
92 | RRIRARPPRLPRPRPRPIMKPRP | 0.102
93 | RRIRARPPRLPRPRPRPINEPRP | -0.0644
94 | RRIRARPPRLPRPRPRPINYPRP | -0.239
95 | RRIRARPPRLPRPRPRPIPGPRP | 0.0653
96 | RRIRARPPRLPRPRPRPIPWPRP | 0.313
97 | RRIRARPPRLPRPRPRPIQMPRP | 0.0579
98 | RRIRARPPRLPRPRPRPIRGPRP | 0.0372
99 | RRIRARPPRLPRPRPRPIRHPRP | -0.0279
100 | RRIRARPPRLPRPRPRPITDPRP | -0.0703
101 | RRIRARPPRLPRPRPRPIWFPRP | 0.225
102 | RRIRARPPRLPRPRPRPIWQPRP | 0.166
103 | RRIRARPPRLPRPRPRPIYFPRP | -0.0784
104 | RRIRARPPRLPRPRPRPIYKPRP | -0.172
105 | RRIRARPPRLPRPRPRPKCCPRP | 0.165
106 | RRIRARPPRLPRPRPRPKDDPRP | 0.811
107 | RRIRARPPRLPRPRPRPKEWPRP | 1.16
108 | RRIRARPPRLPRPRPRPKFAPRP | 0.306
109 | RRIRARPPRLPRPRPRPKFKPRP | -0.0259
